Data as given in the supplement of paper PMC10065799, “High-throughput profiling of sequence recognition by tyrosine kinases and SH2 domains using bacterial peptide display” (eLife, 2023).

Assays:
c-Src SH2 = experiment: SH2 binding enrichment of the phosphorylated peptide, bacterial display (enrichment ratio); higher = better substrate or ligand; peptides without Tyr show the background
SHP2-C SH2 = experiment: as above
Grb2 SH2 = Grb2 SH2 (UniProt P62993); experiment: as above
MERTK = MERTK (UniProt Q12866); experiment: phosphorylation enrichment, bacterial display (enrichment ratio); higher = better substrate or ligand; peptides without Tyr show the background
Fer (mouse) = experiment: as above
Jak2 = Jak2 (UniProt O60674); experiment: as above
AncSZ = experiment: as above
FGFR3 = FGFR3 (UniProt P22607); experiment: as above
c-Abl (mouse) = experiment: as above
EPHB1 = EPHB1 (UniProt P54762); experiment: as above
EPHB1, sequence (P54762 whole entry, looked up): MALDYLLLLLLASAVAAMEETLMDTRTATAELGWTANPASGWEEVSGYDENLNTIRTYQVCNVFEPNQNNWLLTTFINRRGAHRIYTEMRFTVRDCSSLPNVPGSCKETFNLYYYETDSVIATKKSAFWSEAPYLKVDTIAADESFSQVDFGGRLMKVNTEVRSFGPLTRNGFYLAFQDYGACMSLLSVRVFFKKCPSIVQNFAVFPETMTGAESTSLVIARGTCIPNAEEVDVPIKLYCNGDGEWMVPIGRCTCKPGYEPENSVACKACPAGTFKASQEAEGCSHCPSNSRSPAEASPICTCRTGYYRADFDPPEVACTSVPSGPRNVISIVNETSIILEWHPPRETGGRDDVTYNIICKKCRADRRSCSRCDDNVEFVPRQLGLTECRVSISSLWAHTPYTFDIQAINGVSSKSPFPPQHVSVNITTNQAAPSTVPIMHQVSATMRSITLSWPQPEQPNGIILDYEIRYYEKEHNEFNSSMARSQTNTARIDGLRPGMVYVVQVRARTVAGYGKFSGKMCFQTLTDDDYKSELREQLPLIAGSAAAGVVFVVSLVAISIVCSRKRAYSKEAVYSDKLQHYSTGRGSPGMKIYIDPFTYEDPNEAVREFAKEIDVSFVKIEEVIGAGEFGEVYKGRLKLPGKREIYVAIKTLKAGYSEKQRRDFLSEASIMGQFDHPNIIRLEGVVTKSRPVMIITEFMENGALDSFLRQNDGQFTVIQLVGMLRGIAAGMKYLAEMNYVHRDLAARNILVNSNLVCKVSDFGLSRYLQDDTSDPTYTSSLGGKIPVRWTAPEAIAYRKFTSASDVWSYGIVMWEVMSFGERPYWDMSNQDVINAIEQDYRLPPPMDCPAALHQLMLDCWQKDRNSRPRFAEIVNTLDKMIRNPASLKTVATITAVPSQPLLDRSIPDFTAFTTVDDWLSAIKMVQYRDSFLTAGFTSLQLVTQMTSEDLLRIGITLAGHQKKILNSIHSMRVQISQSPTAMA

Fyn = Fyn (UniProt P06241); experiment: as above
Fyn, sequence (P06241 whole entry, looked up): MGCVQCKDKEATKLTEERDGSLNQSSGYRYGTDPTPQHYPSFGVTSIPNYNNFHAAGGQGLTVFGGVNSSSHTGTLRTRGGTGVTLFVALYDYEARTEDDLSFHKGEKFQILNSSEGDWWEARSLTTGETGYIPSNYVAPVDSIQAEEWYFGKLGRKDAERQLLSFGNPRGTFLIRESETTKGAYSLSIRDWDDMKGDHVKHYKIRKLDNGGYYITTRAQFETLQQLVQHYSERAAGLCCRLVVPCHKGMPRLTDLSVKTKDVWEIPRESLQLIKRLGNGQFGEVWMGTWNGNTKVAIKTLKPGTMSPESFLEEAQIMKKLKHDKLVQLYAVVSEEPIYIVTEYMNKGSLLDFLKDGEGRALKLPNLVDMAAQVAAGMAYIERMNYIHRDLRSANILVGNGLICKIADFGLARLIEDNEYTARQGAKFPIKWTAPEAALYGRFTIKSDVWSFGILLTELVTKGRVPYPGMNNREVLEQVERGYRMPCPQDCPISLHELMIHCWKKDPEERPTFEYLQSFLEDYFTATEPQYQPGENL

FGFR1 = FGFR1 (UniProt P11362); experiment: as above
FGFR1, sequence (P11362 whole entry, looked up): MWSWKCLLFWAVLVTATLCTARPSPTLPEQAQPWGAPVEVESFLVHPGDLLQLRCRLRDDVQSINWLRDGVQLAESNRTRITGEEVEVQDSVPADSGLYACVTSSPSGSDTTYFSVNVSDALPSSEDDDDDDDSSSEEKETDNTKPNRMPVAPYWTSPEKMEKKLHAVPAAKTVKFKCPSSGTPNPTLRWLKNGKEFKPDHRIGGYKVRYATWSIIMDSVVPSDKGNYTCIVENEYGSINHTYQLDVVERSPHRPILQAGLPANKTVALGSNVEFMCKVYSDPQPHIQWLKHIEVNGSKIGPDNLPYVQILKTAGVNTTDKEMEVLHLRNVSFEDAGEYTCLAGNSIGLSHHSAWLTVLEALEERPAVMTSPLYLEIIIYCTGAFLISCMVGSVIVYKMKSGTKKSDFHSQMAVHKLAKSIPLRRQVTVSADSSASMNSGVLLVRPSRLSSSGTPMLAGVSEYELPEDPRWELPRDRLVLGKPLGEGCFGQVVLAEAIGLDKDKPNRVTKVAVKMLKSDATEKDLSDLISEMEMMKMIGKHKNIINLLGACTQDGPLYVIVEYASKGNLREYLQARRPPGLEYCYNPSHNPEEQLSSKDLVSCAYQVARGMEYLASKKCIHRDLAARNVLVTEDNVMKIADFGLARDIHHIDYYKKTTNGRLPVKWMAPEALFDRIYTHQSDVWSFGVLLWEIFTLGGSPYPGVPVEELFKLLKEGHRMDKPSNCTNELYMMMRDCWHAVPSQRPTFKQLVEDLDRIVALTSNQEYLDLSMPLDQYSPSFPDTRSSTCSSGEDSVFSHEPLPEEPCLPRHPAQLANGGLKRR

Hck = Hck (UniProt P08631); experiment: as above
Hck, sequence (P08631 whole entry, looked up): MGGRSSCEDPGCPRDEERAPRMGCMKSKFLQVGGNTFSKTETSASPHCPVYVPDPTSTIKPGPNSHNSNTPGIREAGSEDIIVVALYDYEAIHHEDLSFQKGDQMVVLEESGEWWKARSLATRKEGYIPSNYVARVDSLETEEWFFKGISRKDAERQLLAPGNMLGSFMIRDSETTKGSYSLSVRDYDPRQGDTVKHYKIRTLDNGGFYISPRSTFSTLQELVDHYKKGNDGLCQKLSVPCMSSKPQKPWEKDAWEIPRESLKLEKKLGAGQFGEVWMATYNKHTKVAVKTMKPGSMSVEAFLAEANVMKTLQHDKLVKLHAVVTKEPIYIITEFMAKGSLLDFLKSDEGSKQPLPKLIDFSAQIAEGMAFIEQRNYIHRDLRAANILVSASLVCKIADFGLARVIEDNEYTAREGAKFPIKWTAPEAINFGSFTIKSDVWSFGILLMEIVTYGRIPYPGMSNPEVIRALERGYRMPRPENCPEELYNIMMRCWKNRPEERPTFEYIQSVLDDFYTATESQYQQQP

EPHB2 = EPHB2 (UniProt P29323); experiment: as above
EPHB2, sequence (P29323 whole entry, looked up): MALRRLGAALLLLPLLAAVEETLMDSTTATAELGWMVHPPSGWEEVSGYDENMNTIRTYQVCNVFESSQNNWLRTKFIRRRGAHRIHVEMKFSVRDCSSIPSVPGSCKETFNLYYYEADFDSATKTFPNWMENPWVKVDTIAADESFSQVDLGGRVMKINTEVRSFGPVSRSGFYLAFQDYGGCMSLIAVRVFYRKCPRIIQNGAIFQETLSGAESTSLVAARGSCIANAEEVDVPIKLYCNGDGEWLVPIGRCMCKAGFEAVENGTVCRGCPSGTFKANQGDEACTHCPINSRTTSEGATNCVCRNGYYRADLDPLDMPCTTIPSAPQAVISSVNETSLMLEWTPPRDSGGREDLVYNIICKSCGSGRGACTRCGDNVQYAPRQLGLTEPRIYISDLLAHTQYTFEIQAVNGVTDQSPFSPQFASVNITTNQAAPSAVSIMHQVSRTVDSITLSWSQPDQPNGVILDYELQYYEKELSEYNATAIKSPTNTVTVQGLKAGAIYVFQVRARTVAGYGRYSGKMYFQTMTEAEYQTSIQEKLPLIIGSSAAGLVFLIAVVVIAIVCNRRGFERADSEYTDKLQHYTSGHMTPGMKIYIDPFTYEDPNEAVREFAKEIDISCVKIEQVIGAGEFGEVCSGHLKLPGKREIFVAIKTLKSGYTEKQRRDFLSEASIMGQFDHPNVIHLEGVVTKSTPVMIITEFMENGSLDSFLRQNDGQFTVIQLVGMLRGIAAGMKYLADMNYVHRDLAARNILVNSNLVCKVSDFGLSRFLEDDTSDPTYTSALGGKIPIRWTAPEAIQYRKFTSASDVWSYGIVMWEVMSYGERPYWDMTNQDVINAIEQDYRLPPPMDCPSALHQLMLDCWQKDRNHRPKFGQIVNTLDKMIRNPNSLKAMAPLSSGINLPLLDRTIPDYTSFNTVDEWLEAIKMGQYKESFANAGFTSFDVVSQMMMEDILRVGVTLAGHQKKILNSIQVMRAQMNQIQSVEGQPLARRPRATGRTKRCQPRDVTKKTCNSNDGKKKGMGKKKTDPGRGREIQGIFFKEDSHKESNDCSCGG

c-Src = experiment: as above
Fes = Fes (UniProt P07332); experiment: as above
Fes, sequence (P07332 whole entry, looked up, the tested form may be a part): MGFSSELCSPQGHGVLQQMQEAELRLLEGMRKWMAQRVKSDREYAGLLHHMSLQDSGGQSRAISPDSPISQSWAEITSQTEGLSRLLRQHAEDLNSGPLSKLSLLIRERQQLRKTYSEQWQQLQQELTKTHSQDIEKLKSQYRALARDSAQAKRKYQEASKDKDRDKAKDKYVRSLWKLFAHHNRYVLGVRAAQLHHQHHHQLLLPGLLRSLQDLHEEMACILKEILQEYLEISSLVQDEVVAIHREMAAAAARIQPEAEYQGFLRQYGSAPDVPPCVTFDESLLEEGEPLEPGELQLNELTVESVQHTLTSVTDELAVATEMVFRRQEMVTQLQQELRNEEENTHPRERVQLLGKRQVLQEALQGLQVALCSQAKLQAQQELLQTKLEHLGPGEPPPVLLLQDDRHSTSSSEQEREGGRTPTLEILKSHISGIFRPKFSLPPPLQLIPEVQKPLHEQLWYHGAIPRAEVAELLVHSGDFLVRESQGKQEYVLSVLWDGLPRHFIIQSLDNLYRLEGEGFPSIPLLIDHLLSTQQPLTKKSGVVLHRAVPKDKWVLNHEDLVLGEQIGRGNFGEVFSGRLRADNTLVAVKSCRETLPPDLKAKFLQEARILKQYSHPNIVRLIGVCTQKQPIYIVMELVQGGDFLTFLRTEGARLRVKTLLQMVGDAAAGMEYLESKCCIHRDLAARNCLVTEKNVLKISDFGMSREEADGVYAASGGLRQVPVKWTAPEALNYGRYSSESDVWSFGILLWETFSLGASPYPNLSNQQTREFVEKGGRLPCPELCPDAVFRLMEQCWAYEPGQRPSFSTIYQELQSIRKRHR
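Wherever SH2 binding enrichment of the phosphorylated peptide, bacterial display is given: peptide library displayed on the E. coli surface as eCPX fusions, selected cells deep-sequenced, score is each peptide's frequency after selection divided by its frequency in the input.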
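Wherever phosphorylation enrichment, bacterial display is given: 11-residue human phosphosite peptides and single-mutation variants displayed on the E. coli surface, counted by deep sequencing, each peptide's frequency after selection divided by its frequency in the unselected input library; frequency after pTyr selection over input frequency; kinase dosed for 20-30% of maximal phosphorylation in three min.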

Grb2 SH2, sequence (P62993 whole entry, looked up): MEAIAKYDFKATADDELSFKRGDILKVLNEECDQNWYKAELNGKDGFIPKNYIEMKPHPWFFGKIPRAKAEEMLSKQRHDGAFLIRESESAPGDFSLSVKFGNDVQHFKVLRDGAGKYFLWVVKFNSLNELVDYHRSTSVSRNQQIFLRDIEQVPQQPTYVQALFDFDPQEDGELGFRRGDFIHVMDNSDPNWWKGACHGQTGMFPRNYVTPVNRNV

IGKAGYTDKVV [ENO1_Y236] gave an SH2 binding enrichment (c-Src SH2) of 0.371, an SH2 binding enrichment (SHP2-C SH2) of 0.606 and an SH2 binding enrichment (Grb2 SH2) of 0.757. It also gave a phosphorylation enrichment (MERTK) of 0.305, a phosphorylation enrichment (Fer (mouse)) of 0.365 and a phosphorylation enrichment (Jak2) of 0.632. It also gave a phosphorylation enrichment (AncSZ) of 0.531, a phosphorylation enrichment (FGFR3) of 0.508 and a phosphorylation enrichment (c-Abl (mouse)) of 0.481. The phosphorylation enrichment (EPHB1) was 0.398, the phosphorylation enrichment (Fyn) was 0.359 and the phosphorylation enrichment (FGFR1) was 0.456. The phosphorylation enrichment (Hck) was 0.388, the phosphorylation enrichment (EPHB2) was 0.395 and the phosphorylation enrichment (c-Src) was 0.335. The phosphorylation enrichment (Fes) was 0.642.
Work on ELAKFYKLHHI [AK7_Y391_N389K_YF] yielded an SH2 binding enrichment (c-Src SH2) of 0.414, an SH2 binding enrichment (SHP2-C SH2) of 0.747 and an SH2 binding enrichment (Grb2 SH2) of 0.646. The phosphorylation enrichment (MERTK) was 0.536, the phosphorylation enrichment (Fer (mouse)) was 0.462 and the phosphorylation enrichment (Jak2) was 0.645. The phosphorylation enrichment (AncSZ) was 0.65, the phosphorylation enrichment (FGFR3) was 0.531 and the phosphorylation enrichment (c-Abl (mouse)) was 0.621. It also gave a phosphorylation enrichment (EPHB1) of 0.547, a phosphorylation enrichment (Fyn) of 0.566 and a phosphorylation enrichment (FGFR1) of 0.453. The phosphorylation enrichment (Hck) was 0.501, the phosphorylation enrichment (EPHB2) was 0.452 and the phosphorylation enrichment (c-Src) was 0.505. The phosphorylation enrichment (Fes) was 0.762.
LKFAIYFEVRE [LAMA2_Y1258_A1261V_YF] showed an SH2 binding enrichment (c-Src SH2) of 0.653, an SH2 binding enrichment (SHP2-C SH2) of 1.11 and an SH2 binding enrichment (Grb2 SH2) of 0.877. For the same sequence, the phosphorylation enrichment (MERTK) was 0.808, the phosphorylation enrichment (Fer (mouse)) was 0.932 and the phosphorylation enrichment (Jak2) was 2.52. The phosphorylation enrichment (AncSZ) was 1.65, the phosphorylation enrichment (FGFR3) was 1.08 and the phosphorylation enrichment (c-Abl (mouse)) was 1.74. For the same sequence, the phosphorylation enrichment (EPHB1) was 0.652, the phosphorylation enrichment (Fyn) was 0.414 and the phosphorylation enrichment (FGFR1) was 0.556. The phosphorylation enrichment (Hck) was 0.569, the phosphorylation enrichment (EPHB2) was 0.483 and the phosphorylation enrichment (c-Src) was 0.831. It also gave a phosphorylation enrichment (Fes) of 1.72.
Sequence RMETAYGPSVT [MXRA5_Y2717_E2716A] has an SH2 binding enrichment (c-Src SH2) of 0.405, an SH2 binding enrichment (SHP2-C SH2) of 0.904 and an SH2 binding enrichment (Grb2 SH2) of 0.76. It also gave a phosphorylation enrichment (MERTK) of 0.444, a phosphorylation enrichment (Fer (mouse)) of 0.617 and a phosphorylation enrichment (Jak2) of 0.661. For the same sequence, the phosphorylation enrichment (AncSZ) was 0.635, the phosphorylation enrichment (FGFR3) was 0.529 and the phosphorylation enrichment (c-Abl (mouse)) was 0.511. The phosphorylation enrichment (EPHB1) was 0.413, the phosphorylation enrichment (Fyn) was 0.467 and the phosphorylation enrichment (FGFR1) was 0.448. The phosphorylation enrichment (Hck) was 0.63, the phosphorylation enrichment (EPHB2) was 0.46 and the phosphorylation enrichment (c-Src) was 0.646. For the same sequence, the phosphorylation enrichment (Fes) was 0.718.
EFKKHYGFSLF [ANXA3_Y295_YF] showed an SH2 binding enrichment (c-Src SH2) of 0.622, an SH2 binding enrichment (SHP2-C SH2) of 0.749 and an SH2 binding enrichment (Grb2 SH2) of 0.815. It also gave a phosphorylation enrichment (MERTK) of 0.416, a phosphorylation enrichment (Fer (mouse)) of 0.561 and a phosphorylation enrichment (Jak2) of 0.751. The phosphorylation enrichment (AncSZ) was 0.949, the phosphorylation enrichment (FGFR3) was 0.721 and the phosphorylation enrichment (c-Abl (mouse)) was 0.642. For the same sequence, the phosphorylation enrichment (EPHB1) was 0.574, the phosphorylation enrichment (Fyn) was 0.413 and the phosphorylation enrichment (FGFR1) was 0.461. It also gave a phosphorylation enrichment (Hck) of 0.507, a phosphorylation enrichment (EPHB2) of 0.509 and a phosphorylation enrichment (c-Src) of 0.46. The phosphorylation enrichment (Fes) was 1.01.
LITTLYISFLG [KCNQ1_Y267_G269S] was tested, and the SH2 binding enrichment (c-Src SH2) was 0.838, the SH2 binding enrichment (SHP2-C SH2) was 0.621 and the SH2 binding enrichment (Grb2 SH2) was 0.872. The phosphorylation enrichment (MERTK) was 0.902, the phosphorylation enrichment (Fer (mouse)) was 0.757 and the phosphorylation enrichment (Jak2) was 2.27. For the same sequence, the phosphorylation enrichment (AncSZ) was 1.47, the phosphorylation enrichment (FGFR3) was 1.06 and the phosphorylation enrichment (c-Abl (mouse)) was 1.64. The phosphorylation enrichment (EPHB1) was 0.852, the phosphorylation enrichment (Fyn) was 0.913 and the phosphorylation enrichment (FGFR1) was 0.71. For the same sequence, the phosphorylation enrichment (Hck) was 1.15, the phosphorylation enrichment (EPHB2) was 0.784 and the phosphorylation enrichment (c-Src) was 1.56. It also gave a phosphorylation enrichment (Fes) of 1.98.
Work on LLREWYLQDPF [SIX3_Y225_YF] yielded an SH2 binding enrichment (c-Src SH2) of 0.978, an SH2 binding enrichment (SHP2-C SH2) of 2.31 and an SH2 binding enrichment (Grb2 SH2) of 1.42. For the same sequence, the phosphorylation enrichment (MERTK) was 0.567, the phosphorylation enrichment (Fer (mouse)) was 0.661 and the phosphorylation enrichment (Jak2) was 1.52. It also gave a phosphorylation enrichment (AncSZ) of 1.43, a phosphorylation enrichment (FGFR3) of 0.784 and a phosphorylation enrichment (c-Abl (mouse)) of 1.15. It also gave a phosphorylation enrichment (EPHB1) of 0.557, a phosphorylation enrichment (Fyn) of 0.564 and a phosphorylation enrichment (FGFR1) of 0.941. For the same sequence, the phosphorylation enrichment (Hck) was 0.509, the phosphorylation enrichment (EPHB2) was 0.765 and the phosphorylation enrichment (c-Src) was 0.788. The phosphorylation enrichment (Fes) was 1.73.
HRGSLYLAIEF [TEK_Y899_Y897S_YF] gave an SH2 binding enrichment (c-Src SH2) of 0.536, an SH2 binding enrichment (SHP2-C SH2) of 0.683 and an SH2 binding enrichment (Grb2 SH2) of 0.956. For the same sequence, the phosphorylation enrichment (MERTK) was 0.538, the phosphorylation enrichment (Fer (mouse)) was 0.748 and the phosphorylation enrichment (Jak2) was 1.28. The phosphorylation enrichment (AncSZ) was 1.23, the phosphorylation enrichment (FGFR3) was 0.902 and the phosphorylation enrichment (c-Abl (mouse)) was 1.19. It also gave a phosphorylation enrichment (EPHB1) of 0.641, a phosphorylation enrichment (Fyn) of 0.538 and a phosphorylation enrichment (FGFR1) of 0.589. It also gave a phosphorylation enrichment (Hck) of 0.48, a phosphorylation enrichment (EPHB2) of 0.491 and a phosphorylation enrichment (c-Src) of 0.489. For the same sequence, the phosphorylation enrichment (Fes) was 1.55.
CTNIHYNFMCN [TP53_Y234_T231N_YF] gave an SH2 binding enrichment (c-Src SH2) of 2.21, an SH2 binding enrichment (SHP2-C SH2) of 1.62 and an SH2 binding enrichment (Grb2 SH2) of 1.62. The phosphorylation enrichment (MERTK) was 0.423, the phosphorylation enrichment (Fer (mouse)) was 0.481 and the phosphorylation enrichment (Jak2) was 0.693. For the same sequence, the phosphorylation enrichment (AncSZ) was 0.8, the phosphorylation enrichment (FGFR3) was 0.714 and the phosphorylation enrichment (c-Abl (mouse)) was 0.655. The phosphorylation enrichment (EPHB1) was 0.436, the phosphorylation enrichment (Fyn) was 0.456 and the phosphorylation enrichment (FGFR1) was 0.554. It also gave a phosphorylation enrichment (Hck) of 0.426, a phosphorylation enrichment (EPHB2) of 0.597 and a phosphorylation enrichment (c-Src) of 0.562. It also gave a phosphorylation enrichment (Fes) of 0.974.
With SEPDLYYDPRG [PKP1_Y160_C161Y] the SH2 binding enrichment (c-Src SH2) was 0.524, the SH2 binding enrichment (SHP2-C SH2) was 0.679 and the SH2 binding enrichment (Grb2 SH2) was 0.864. The phosphorylation enrichment (MERTK) was 7.05, the phosphorylation enrichment (Fer (mouse)) was 1.65 and the phosphorylation enrichment (Jak2) was 3.35. It also gave a phosphorylation enrichment (AncSZ) of 2.91, a phosphorylation enrichment (FGFR3) of 8.64 and a phosphorylation enrichment (c-Abl (mouse)) of 3.09. For the same sequence, the phosphorylation enrichment (EPHB1) was 14.3, the phosphorylation enrichment (Fyn) was 5.41 and the phosphorylation enrichment (FGFR1) was 10.8. The phosphorylation enrichment (Hck) was 8.75, the phosphorylation enrichment (EPHB2) was 13.6 and the phosphorylation enrichment (c-Src) was 4.93. For the same sequence, the phosphorylation enrichment (Fes) was 1.16.
